Assay results: patent publication US20240309087A1 (SHANGHAI JUNSHI BIOSCIENCES, published 2024)

Key:
[1] = target: T1, human CD112R on CHO-CD112R cells (human, UniProt Q6DKI7 41-326); assay: FACS on CHO-CD112R cells; EC50 Ref/EC50 antibody
T1 construct: whole, on cells; also called hCD112R; PVRIG
T1 sequence (looked up): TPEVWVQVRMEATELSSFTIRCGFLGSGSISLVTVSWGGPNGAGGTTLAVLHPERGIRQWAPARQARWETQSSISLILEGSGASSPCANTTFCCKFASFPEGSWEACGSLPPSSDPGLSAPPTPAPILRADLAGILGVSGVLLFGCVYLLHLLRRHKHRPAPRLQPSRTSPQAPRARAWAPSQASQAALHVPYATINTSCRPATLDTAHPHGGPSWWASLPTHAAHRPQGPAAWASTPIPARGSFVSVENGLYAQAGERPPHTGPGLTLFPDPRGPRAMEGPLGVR
Summary of the method: (§1)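 CHO cells stably expressing human CD112R (Met1-Arg326) incubated 30 min at 4 °C with antibody, top 50 μg/mL, 5-fold dilutions, 12 points. Fluorescent secondary antibody added, 30 min at 4 °C. MFI by flow cytometry; EC50 from fitted dose-response curves, with reference anti-CD112R and anti-KLH IgG4 controls.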

[2] = target: T2, recombinant cynomolgus monkey CD112R antigen (cynomolgus monkey, UniProt A0A2K5WVV8 1-322); assay: ELISA on coated recombinant cynomolgus monkey CD112R, OD 450 nm, ambiguous fit; unit from the axis
T2 construct: bought
T2 sequence: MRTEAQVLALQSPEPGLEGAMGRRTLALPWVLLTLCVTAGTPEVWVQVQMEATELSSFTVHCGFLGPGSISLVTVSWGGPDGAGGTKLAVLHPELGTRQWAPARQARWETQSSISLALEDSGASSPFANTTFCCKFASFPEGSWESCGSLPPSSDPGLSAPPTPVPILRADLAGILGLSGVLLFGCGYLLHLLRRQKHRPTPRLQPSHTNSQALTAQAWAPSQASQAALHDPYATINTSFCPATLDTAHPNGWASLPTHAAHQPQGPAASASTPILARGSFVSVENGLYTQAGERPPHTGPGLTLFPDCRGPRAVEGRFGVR
Experimental: A plate was coated with a recombinant cynomolgus monkey CD112R antigen (Acrobiosystems, Cat No. PVG-C5259) at a fixed concentration, and the chimeric anti-CD112R antibodies diluted in a gradient (initial concentration: 1 μg/mL, 2.5-fold gradient dilution, 12 concentration gradients in total) were added to bind to the antigen. Horseradish peroxidase (HRP)-conjugated mouse anti-human IgG4 Fc (Southern Biotech, 9200-05) was subjected to a 5000-fold dilution and used as a detection antibody for detection. The color development was performed with 0.1 mg/mL TMB, and finally stopped with 2 M hydrochloric acid. […] EC₅₀ was obtained by fitting with a four-parameter logistic regression (4PL) model.

[3] = target: T1, human CD112R on CHO-CD112R cells; assay: FACS on CHO-CD112R cells
Summary of the method: as §1

B1: Chi-18 (antibody, V domains shown)
VH: EVQLQQSGAELVKPGASVKISCKASGYTFTDYNMDWVKQSHGKSLEWIGDIHPKYDRTSYNQNFKGKATLTVDKSSRTAYMELRSLTSEDTAVYFCVRINDFDEGFAMDYWGQGTSVTVSS
VL: QIVLTQSPAIMSVSPGEKVTMTCSATSSINYMHWYQQKSGTSPKRWIYDTSKLASGVPARFSGSGSGTSYSLTISNMEAEDAATYYCQQWTSNPLTFGAGTKLELK
notes: chimeric
Relative activity (%) [1]: 572%
EC50 [2]: ~27.6 mg/mL
EC50 [3]: 0.000294 mg/mL
